# *1 amine or outer side, *2 acyl side, *3 side chain or, on linkers, in order; H or OH if unused. Bridges are numbered along the chain shown (N, C = ends). Where no end group is shown, it is not given here. [ ]: non-standard residue; d: D form. Oic = O=C(O)[C@@H]1C[C@@H]2CCCC[C@@H]2N1; Adipoyl = O=C(CCCCC(=O)[*:2])[*:1]; Trx = NC[C@H]1CC[C@H](C(=O)O)CC1; tBuAla = CC(C)(C)C[C@H](N)C(=O)O; Pen = CC(C)(S)[C@H](N)C(=O)O; 4Amb = NCc1ccc(C(=O)O)cc1; NMeC = CN[C@@H](CS)C(=O)O; Orn = NCCC[C@H](N)C(=O)O; Dab = NCC[C@H](N)C(=O)O; Abu = CC[C@H](N)C(=O)O; Dap = NC[C@H](N)C(=O)O; PEG2 = NCCOCCOCCC(=O)O; Ahx = NCCCCCC(=O)O; GABA = NCCCC(=O)O; Sar = CNCC(=O)O
# T1: recombinant rat MASP1 (amino acids 302-704, C-terminal His Tag) (rat, UniProt Q8CHN8 302-704)
# T1 sequence: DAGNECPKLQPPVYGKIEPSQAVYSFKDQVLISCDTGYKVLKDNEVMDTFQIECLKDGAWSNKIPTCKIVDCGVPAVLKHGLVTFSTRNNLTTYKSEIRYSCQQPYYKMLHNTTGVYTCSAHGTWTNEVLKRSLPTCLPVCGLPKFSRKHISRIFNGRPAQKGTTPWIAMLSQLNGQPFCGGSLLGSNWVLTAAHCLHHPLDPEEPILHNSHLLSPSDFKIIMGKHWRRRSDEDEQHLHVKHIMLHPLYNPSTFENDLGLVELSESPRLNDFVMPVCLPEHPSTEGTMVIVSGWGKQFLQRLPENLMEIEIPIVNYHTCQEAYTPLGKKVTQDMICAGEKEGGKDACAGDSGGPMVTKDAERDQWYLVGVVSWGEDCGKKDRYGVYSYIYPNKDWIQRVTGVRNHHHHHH
# T2: recombinant human MASP1 (amino acids 297-699, C-terminal His Tag) (human, UniProt P48740 297-699)
# T2 sequence: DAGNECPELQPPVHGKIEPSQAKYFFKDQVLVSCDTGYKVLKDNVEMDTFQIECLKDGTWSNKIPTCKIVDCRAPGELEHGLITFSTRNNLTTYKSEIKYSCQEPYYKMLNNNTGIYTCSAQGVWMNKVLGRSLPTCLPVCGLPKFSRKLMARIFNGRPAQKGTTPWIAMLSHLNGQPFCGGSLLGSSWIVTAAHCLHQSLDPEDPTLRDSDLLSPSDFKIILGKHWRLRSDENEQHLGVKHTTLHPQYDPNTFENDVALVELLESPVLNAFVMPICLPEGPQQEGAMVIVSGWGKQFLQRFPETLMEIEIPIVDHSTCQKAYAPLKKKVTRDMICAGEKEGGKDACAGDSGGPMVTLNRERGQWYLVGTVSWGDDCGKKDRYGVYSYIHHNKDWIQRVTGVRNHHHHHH
# B1: Example 75: (Ahx)**-IC+SRSLP-(Oic)-I-(Pen)+-IPE++-NH2 (peptide)
# peptide: [Ahx]ICSRSLP[Oic]I[Pen]IPE-NH2
# modifications: disulfide 3-11; lactam N-14; also: TFA salt
# B2: Example 98: A**GGIC+SRSLP-(Oic)-I-(Pen)+-IPd** (peptide)
# peptide: cyclo(AGGICSRSLP[Oic]I[Pen]IP[dD])
# modifications: disulfide 5-13; also: TFA salt
# B3: Example 68: (Ahx)**-(4-(Aminomethyl)benzoic acid)-IC+SRS-((tBu)A)-PPI-(Pen)+-IP** (peptide)
# peptide: cyclo([Ahx][4Amb]ICSRS[tBuAla]PPI[Pen]IP)
# modifications: disulfide 4-12; also: TFA salt
# B4: Example 89: (Dap)**-(Dap)-IC+SRSLP-(Oic)-I-(Pen)+-IP** (peptide)
# peptide: cyclo([Dap][Dap]ICSRSLP[Oic]I[Pen]IP)
# modifications: disulfide 4-12; also: TFA salt
# B5: Example 60: (Adipic acid)**-IC+SRS-((tBu)A)-PPI-(Pen)+-IPD-(Dap)++-NH2 (peptide)
# peptide: Adipoyl-ICSRS[tBuAla]PPI[Pen]IPD[Dap]-NH2
# modifications: lactam (positions not given here); disulfide 2-10; not fully specified (bridges); also: TFA salt
# B6: Example 59: (Ahx)**-(TXA)-IC+SRS-((tBu)A)-PPI-(Pen)+-IP** (peptide)
# peptide: cyclo([Ahx][Trx]ICSRS[tBuAla]PPI[Pen]IP)
# modifications: disulfide 4-12; also: TFA salt
# B7: Example 35: (Gamma-Abu)**-IC+SRS-((tBu)A)-PPI-(Pen)+-IPD** (peptide)
# peptide: cyclo([GABA]ICSRS[tBuAla]PPI[Pen]IPD)
# modifications: disulfide 3-11; also: TFA salt
# B8: Example 72: (Ahx)**-AIC+SRS-((tBu)A)-PPI-(Pen)+-I** (peptide)
# peptide: cyclo([Ahx]AICSRS[tBuAla]PPI[Pen]I)
# modifications: disulfide 4-12; also: TFA salt
# B9: Example 64: (Ahx)**-((N-Me)G)-IC+SRS-((tBu)A)-PPI-(Pen)+-I** (peptide)
# peptide: cyclo([Ahx][Sar]ICSRS[tBuAla]PPI[Pen]I)
# modifications: disulfide 4-12; also: TFA salt
# B10: Example 13: (Ahx)**-GIC+SRSLPPIC+IPD** (peptide)
# peptide: cyclo([Ahx]GICSRSLPPICIPD)
# modifications: disulfide 4-12; also: TFA salt
# B11: Example 43: (Ahx)**AIC+SRSLP-(Oic)-I-(Pen)+-IPD++-NH2 (peptide)
# peptide: [Ahx]AICSRSLP[Oic]I[Pen]IPD-NH2
# modifications: disulfide 4-12; lactam N-15; also: TFA salt
# B12: Example 34: (PEG1(10 atoms))**-AIC+SRS-((tBu)A)-PPI-(Pen)+-IPD** (peptide)
# peptide: cyclo([PEG2]AICSRS[tBuAla]PPI[Pen]IPD)
# modifications: disulfide 4-12; also: TFA salt
# B13: Example 44: (Orn)++-AIC+SRS-((tBu)A)-PPI-((N-Me)C)+-IPD++-NH2 (peptide)
# peptide: [Orn]AICSRS[tBuAla]PPI[NMeC]IPD-NH2
# modifications: lactam 1-15; disulfide 4-12; also: TFA salt
# B14: Example 41: A**GAIC+SRSLP-(Oic)-I-(Pen)+-IPD++-NH2 (peptide)
# peptide: AGAICSRSLP[Oic]I[Pen]IPD-NH2
# modifications: disulfide 5-13; lactam N-16; also: TFA salt
# B15: Example 25: (Ahx)**-AIC+SRSLP-(Oic)-IC+IP** (peptide)
# peptide: cyclo([Ahx]AICSRSLP[Oic]ICIP)
# modifications: disulfide 4-12; also: TFA salt
# B16: Example 27: (Ahx)**-AIC+SRS-((tBu)A)-PPI-(Pen)+-IPD** (peptide)
# peptide: cyclo([Ahx]AICSRS[tBuAla]PPI[Pen]IPD)
# modifications: disulfide 4-12; also: TFA salt
# B17: Example 57: (Dap)**-(Dap)-IC+SRS-((tBu)A)-PPI-(Pen)+-I** (peptide)
# peptide: cyclo([Dap][Dap]ICSRS[tBuAla]PPI[Pen]I)
# modifications: disulfide 4-12; also: TFA salt
# B18: Example 42: A**GGIC+SRSLP-(Oic)-I-(Pen)+-IPD++-NH2 (peptide)
# peptide: AGGICSRSLP[Oic]I[Pen]IPD-NH2
# modifications: disulfide 5-13; lactam N-16; also: TFA salt
# B19: Example 55: (Dap)**-IC+SRS-((tBu)A)-PPI-(Pen)+-IP** (peptide)
# peptide: cyclo([Dap]ICSRS[tBuAla]PPI[Pen]IP)
# modifications: disulfide 3-11; also: TFA salt
# B20: Example 56: (Dab)**-IC+SRS-((tBu)A)-PPI-(Pen)+-IP** (peptide)
# peptide: cyclo([Dab]ICSRS[tBuAla]PPI[Pen]IP)
# modifications: disulfide 3-11; also: TFA salt
# B21: Example 32: (Ahx)**-AIC+SRS-((tBu)A)-PPI-((N-Me)C)+-IPD** (peptide)
# peptide: cyclo([Ahx]AICSRS[tBuAla]PPI[NMeC]IPD)
# modifications: disulfide 4-12; also: TFA salt
# B22: Example 45: (Ahx)**-AIC+SRSLPPIC+IPD** (peptide)
# peptide: cyclo([Ahx]AICSRSLPPICIPD)
# modifications: disulfide 4-12; also: TFA salt
# B23: Example 48: (Ahx)**-GIC+SRS-((tBu)A)-PPI-(Pen)+-IPD++-NH2 (peptide)
# peptide: [Ahx]GICSRS[tBuAla]PPI[Pen]IPD-NH2
# modifications: disulfide 4-12; lactam N-15; also: TFA salt
# B24: Example 38: (Ahx)**-(Abu)-IC+SRS-((tBu)A)-PPI-(Pen)+-IPD** (peptide)
# peptide: cyclo([Ahx][Abu]ICSRS[tBuAla]PPI[Pen]IPD)
# modifications: disulfide 4-12; also: TFA salt
# B25: Example 24: (PEG1(10 atoms))**-GIC+SRSLPPIC+IPD** (peptide)
# peptide: cyclo([PEG2]GICSRSLPPICIPD)
# modifications: disulfide 4-12; also: TFA salt
# B26: Example 29: A**GGIC+SRS-((tBu)A)-PPI-(Pen)+-IPD** (peptide)
# peptide: cyclo(AGGICSRS[tBuAla]PPI[Pen]IPD)
# modifications: disulfide 5-13; also: TFA salt
# B27: Example 37: G**AIC+SRSLPPIC+IPD++-NH2 (peptide)
# peptide: GAICSRSLPPICIPD-NH2
# modifications: disulfide 4-12; lactam N-15; also: TFA salt
# B28: Example 26: A**GAIC+SRS-((tBu)A)-PPI-(Pen)+-IPD** (peptide)
# peptide: cyclo(AGAICSRS[tBuAla]PPI[Pen]IPD)
# modifications: disulfide 5-13; also: TFA salt
# B29: Example 50: C++AIC+SRS-((tBu)A)-PPI-(Pen)+-IPDC++-NH2 (peptide)
# peptide: CAICSRS[tBuAla]PPI[Pen]IPDC-NH2
# modifications: disulfide 1-16, 4-12; also: TFA salt
# B30: Example 46: (Ahx)**-AIC+SRS-((tBu)A)-PPIC+IPD** (peptide)
# peptide: cyclo([Ahx]AICSRS[tBuAla]PPICIPD)
# modifications: disulfide 4-12; also: TFA salt
# B31: Example 49: (Ahx)**-GIC+SRSLP-(Oic)-I-(Pen)+-IPD++-NH2 (peptide)
# peptide: [Ahx]GICSRSLP[Oic]I[Pen]IPD-NH2
# modifications: disulfide 4-12; lactam N-15; also: TFA salt
# B32: Example 51: (Ahx)**-IC+SRS-((tBu)A)-PPI-(Pen)+-IP** (peptide)
# peptide: cyclo([Ahx]ICSRS[tBuAla]PPI[Pen]IP)
# modifications: disulfide 3-11; also: TFA salt
# Biological target: T1, recombinant rat MASP1 (amino acids …)
# Assay: cell-based or functional assay
row,Binder,rat MASP1 IC50
1,B1,27 nM
2,B2,170 nM
3,B3,30.8 nM
4,B4,290 nM
5,B5,330 nM
6,B6,48.6 nM
7,B7,63 nM
8,B8,85 nM
9,B9,157 nM

# Biological target: recombinant rat MASP2 (amino acids 296-685, C-terminal His Tag) (rat, UniProt Q9JJS8 296-685)
# Sequence (Q9JJS8 other isoform, or with tags, fused parts or gaps limits assumed): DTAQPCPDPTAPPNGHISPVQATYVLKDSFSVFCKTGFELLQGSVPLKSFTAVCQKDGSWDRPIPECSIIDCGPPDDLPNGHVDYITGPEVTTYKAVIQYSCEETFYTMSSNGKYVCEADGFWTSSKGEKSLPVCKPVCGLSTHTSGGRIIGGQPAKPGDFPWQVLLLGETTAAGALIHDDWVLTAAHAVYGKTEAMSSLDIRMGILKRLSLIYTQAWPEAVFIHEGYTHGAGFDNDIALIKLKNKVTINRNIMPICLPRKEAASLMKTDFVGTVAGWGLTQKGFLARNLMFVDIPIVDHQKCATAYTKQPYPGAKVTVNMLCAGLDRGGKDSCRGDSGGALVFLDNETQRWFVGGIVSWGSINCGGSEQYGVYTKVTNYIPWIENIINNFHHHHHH
# Assay: cell-based or functional assay
row,Binder,rat MASP2 IC50
1,B1,1.4 nM
2,B3,2.97 nM
3,B4,64 nM
4,B5,13 nM
5,B7,24 nM
6,B8,14 nM
7,B9,13 nM

# Biological target: T2, recombinant human MASP1 (amino acids …)
# Assay: cell-based or functional assay
row,Binder,human MASP1 IC50
1,B10,140 nM
2,B11,6.7 nM
3,B1,7.2 nM
4,B12,11 nM
5,B13,4.7 nM
6,B2,19 nM
7,B14,5.9 nM
8,B15,60 nM
9,B3,6.1 nM
10,B16,9.1 nM
11,B17,46 nM
12,B18,13 nM
13,B4,5.7 nM
14,B5,58 nM
15,B19,46 nM
16,B20,86 nM

row,Binder,human MASP1 IC50
1,B6,11 nM
2,B7,4.1 nM
3,B21,22 nM
4,B22,92 nM
5,B23,10 nM
6,B24,20 nM
7,B25,110 nM
8,B26,8.6 nM
9,B27,16 nM
10,B28,12 nM
11,B29,13 nM
12,B30,56 nM
13,B31,19 nM
14,B8,6.3 nM
15,B9,9.4 nM
16,B32,6.3 nM

# Biological target: recombinant human MASP2 (amino acids 297-686, C-terminal His Tag) (human, UniProt O00187 297-686)
# Sequence (O00187 other isoform, or with tags, fused parts or gaps limits assumed): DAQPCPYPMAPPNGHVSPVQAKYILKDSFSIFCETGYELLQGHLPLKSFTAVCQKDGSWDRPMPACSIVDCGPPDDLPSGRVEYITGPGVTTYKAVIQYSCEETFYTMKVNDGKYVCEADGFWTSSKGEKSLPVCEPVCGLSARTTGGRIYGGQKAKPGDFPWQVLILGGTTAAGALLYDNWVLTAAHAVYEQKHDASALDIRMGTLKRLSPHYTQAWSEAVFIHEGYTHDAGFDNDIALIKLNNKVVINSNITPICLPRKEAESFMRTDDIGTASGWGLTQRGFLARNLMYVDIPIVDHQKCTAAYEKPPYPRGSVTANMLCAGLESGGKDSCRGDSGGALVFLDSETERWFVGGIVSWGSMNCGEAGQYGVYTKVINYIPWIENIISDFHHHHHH
# Assay: cell-based or functional assay
row,Binder,human MASP2 IC50
1,B10,130 nM
2,B11,120 nM
3,B1,14 nM
4,B12,98 nM
5,B13,230 nM
6,B2,160 nM
7,B14,190 nM
8,B15,610 nM
9,B3,2.57 nM
10,B16,37.5 nM
11,B17,340 nM
12,B18,200 nM
13,B4,91 nM
14,B5,5.4 nM
15,B19,900 nM
16,B20,1100 nM

row,Binder,human MASP2 IC50
1,B6,5.7 nM
2,B21,63.5 nM
3,B22,74 nM
4,B23,70 nM
5,B24,44 nM
6,B25,210 nM
7,B26,68 nM
8,B27,140 nM
9,B28,170 nM
10,B29,210 nM
11,B30,89 nM
12,B31,140 nM
13,B8,48 nM
14,B9,12 nM
15,B32,17 nM
